In patent US20180155451A1 (published 2018):

T1: FcγRIIb (human, UniProt P31994 43-217)
T1 construct: extracellular domain; also called FcgRIIb; 2b; not shown: His tag at the C terminus
T1 sequence (looked up): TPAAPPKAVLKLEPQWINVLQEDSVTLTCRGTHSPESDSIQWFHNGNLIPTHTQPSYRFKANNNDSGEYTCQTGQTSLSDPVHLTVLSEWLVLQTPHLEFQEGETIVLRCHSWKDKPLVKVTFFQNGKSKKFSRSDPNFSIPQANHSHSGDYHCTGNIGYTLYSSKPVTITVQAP

T2: FcγRIIb extracellular domain with C-terminal His tag (human, UniProt P31994 43-217)
T2 construct: extracellular domain; also called 2b; FcgRIIb; not shown: His tag at the C terminus
T2 sequence (looked up): T1 sequence (looked up)

B1: GpH7-A5/GpH7-B3 variant Q295_09D/GpL16-k0 (antibody, human IgG1, kappa)
heavy 1: not shown
heavy 2: not shown
light: DIVMTQSPLSLPVTPGEPASISCQASESLVHSNRNTYLHWYLQKPGQSPQLLIYKVSNRFSGVPDRFSGSGSGTDFTLKISRVEAEDVGVYYCSQNTHVPPTFGQGTKVEIERTVAAPSVFIFPPSDEQLKSGTASVVCLLNNFYPREAKVQWKVDNALQSGNSQESVTEQDSKDSTYSLSSTLTLSKADYEKHKVYACEVTHQGLSSPVTKSFNRGEC
notes: He Ab: mutation only in the GpH7-B3 H chain; EU numbering; also called He Ab
B2: GpH7-A5/GpH7-B3 variant Q295_12R/GpL16-k0 (antibody, human IgG1, kappa)
heavy 1: not shown
heavy 2: not shown
light: B1 light
notes: as for B1
B3: GpH7-A5/GpH7-B3 variant Q295_11K/GpL16-k0 (antibody, human IgG1, kappa)
heavy 1: not shown
heavy 2: not shown
light: B1 light
notes: as for B1
B4: GpH7-A5/GpH7-B3 variant Q295_10E/GpL16-k0 (antibody, human IgG1, kappa)
heavy 1: not shown
heavy 2: not shown
light: B1 light
notes: as for B1
B5: GpH7-A5/GpH7-B3 variant V266_15Y/GpL16-k0 (antibody, human IgG1, kappa)
heavy 1: not shown
heavy 2: not shown
light: B1 light
notes: He Ab: mutation in the GpH7-B3 H chain only; also called He Ab
B6: GpH7-A5/GpH7-B3 variant V266_14T/GpL16-k0 (antibody, human IgG1, kappa)
heavy 1: not shown
heavy 2: not shown
light: B1 light
notes: as for B5
B7: GpH7-A5/GpH7-B3 variant S267_03V/GpL16-k0 (antibody, human IgG1, kappa)
heavy 1: not shown
heavy 2: not shown
light: B1 light
notes: as for B5
B8: GpH7-A5/GpH7-B3 variant N325_20W/GpL16-k0 (antibody, human IgG1, kappa)
heavy 1: not shown
heavy 2: not shown
light: B1 light
notes: as for B5
B9: GpH7-A5/GpH7-B3 variant V266_19Q/GpL16-k0 (antibody, human IgG1, kappa)
heavy 1: not shown
heavy 2: not shown
light: B1 light
notes: as for B5
B10: GpH7-A5/GpH7-B3 variant S267_07I/GpL16-k0 (antibody, human IgG1, kappa)
heavy 1: not shown
heavy 2: not shown
light: B1 light
notes: as for B5
B11: GpH7-A5/GpH7-B3 variant V266_05P/GpL16-k0 (antibody, human IgG1, kappa)
heavy 1: not shown
heavy 2: not shown
light: B1 light
notes: as for B5
B12: GpH7-A5/GpH7-B3 variant V266_02A/GpL16-k0 (antibody, human IgG1, kappa)
heavy 1: not shown
heavy 2: not shown
light: B1 light
notes: as for B5
B13: GpH7-A5/GpH7-B3 variant T335_04F/GpL16-k0 (antibody, human IgG1, kappa)
heavy 1: not shown
heavy 2: not shown
light: B1 light
notes: as for B5
B14: GpH7-A5/GpH7-B3 variant V266_16H/GpL16-k0 (antibody, human IgG1, kappa)
heavy 1: not shown
heavy 2: not shown
light: B1 light
notes: as for B5
B15: GpH7-A5/GpH7-B3 variant V266_04F/GpL16-k0 (antibody, human IgG1, kappa)
heavy 1: not shown
heavy 2: not shown
light: B1 light
notes: as for B5
B16: GpH7-A5/GpH7-B3 variant T335_18N/GpL16-k0 (antibody, human IgG1, kappa)
heavy 1: not shown
heavy 2: not shown
light: B1 light
notes: as for B5
B17: GpH7-A5/GpH7-B3 variant P331_10E/GpL16-k0 (antibody, human IgG1, kappa)
heavy 1: not shown
heavy 2: not shown
light: B1 light
notes: as for B5
B18: GpH7-A5/GpH7-B3 variant P331_03V/GpL16-k0 (antibody, human IgG1, kappa)
heavy 1: not shown
heavy 2: not shown
light: B1 light
notes: as for B5
B19: GpH7-A5/GpH7-B3 variant S337_07I/GpL16-k0 (antibody, human IgG1, kappa)
heavy 1: not shown
heavy 2: not shown
light: B1 light
notes: as for B5
B20: GpH7-A5/GpH7-B3 variant P331_15Y/GpL16-k0 (antibody, human IgG1, kappa)
heavy 1: not shown
heavy 2: not shown
light: B1 light
notes: as for B5
B21: GpH7-A5/GpH7-B3 variant P331_07I/GpL16-k0 (antibody, human IgG1, kappa)
heavy 1: not shown
heavy 2: not shown
light: B1 light
notes: as for B5
B22: GpH7-A5/GpH7-B3 variant V266_11K/GpL16-k0 (antibody, human IgG1, kappa)
heavy 1: not shown
heavy 2: not shown
light: B1 light
notes: as for B5

Molecular target: T1, FcγRIIb
Assay: SPR (Biacore), captured antibody, soluble FcγR; relative to GpH7-A5/GpH7-B3/GpL16-k0

Row | He/Con_2b | Binder
1 | 60.8 relative, HeCon Ab = 100 | B1
2 | 65.2 relative, HeCon Ab = 100 | B2
3 | 70.4 relative, HeCon Ab = 100 | B3
4 | 94.8 relative, HeCon Ab = 100 | B4

Molecular target: T3, FcγRIa (human, UniProt P12314 16-292)
T3 construct: extracellular domain; also called FcgRI; 1a; not shown: His tag at the C terminus
Assay: as above

T3 sequence (P12314 16-292): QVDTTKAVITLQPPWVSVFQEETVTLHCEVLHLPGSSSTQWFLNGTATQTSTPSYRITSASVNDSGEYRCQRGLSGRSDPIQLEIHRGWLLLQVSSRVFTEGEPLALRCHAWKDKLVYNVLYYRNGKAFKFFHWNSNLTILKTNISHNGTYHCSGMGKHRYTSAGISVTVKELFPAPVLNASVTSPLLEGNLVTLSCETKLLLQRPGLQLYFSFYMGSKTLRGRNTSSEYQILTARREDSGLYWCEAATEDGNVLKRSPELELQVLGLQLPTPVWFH

Row | He/Con_1a | Binder
5 | 100 relative, HeCon Ab = 100 | B1
6 | 100 relative, HeCon Ab = 100 | B2
7 | 101 relative, HeCon Ab = 100 | B3
8 | 103 relative, HeCon Ab = 100 | B4

Molecular target: T4, FcγRIIIa extracellular domain with C-terminal His tag (human, UniProt P08637 17-208)
T4 construct: extracellular domain; also called 3a; FcgRIIIa; not shown: His tag at the C terminus
Assay: SPR (Biacore), relative binding, GpH7-A5/GpH7-B3/GpL16-k0 = 100
Protocol: (§1) Analysis of interaction between objective antibody and the FcγR was carried out using Biacore T100 (GE Healthcare). HBS-EP+ (GE Healthcare) was used as the running buffer, and the measurement temperature was set to 25° C. Chips produced by immobilizing the antigen peptide by the amine coupling method to a Series S Sencor Chip CM5 (GE Healthcare), or alternatively, chips produced by allowing preliminarily biotinylated antigen peptides to interact with and immobilize onto a Series S Sensor Chip SA (certified) (GE Healthcare) were used. Antibodies of interest were captured onto an antigen peptide-immobilized chip, and allowed to interact to each FcγR diluted with running buffer. To regenerate and repeatedly use the chip, the antibodies captured on the chip were washed off by reacting 10 mM glycine-HCl, pH 1.5.
(§2) The FcγR-binding activity of each antibody was assessed primarily using as an indicator the FcγR-binding activity and dissociation constant for FcγR.

T4 sequence (P08637 17-208): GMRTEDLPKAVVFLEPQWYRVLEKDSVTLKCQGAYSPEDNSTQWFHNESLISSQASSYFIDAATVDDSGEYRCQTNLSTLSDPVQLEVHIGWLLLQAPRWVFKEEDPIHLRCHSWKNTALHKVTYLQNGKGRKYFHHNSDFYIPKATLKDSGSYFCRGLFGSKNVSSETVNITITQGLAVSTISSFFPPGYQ

Row | He/Con_3a | Binder
9 | 14.5 % of control | B5
10 | 39.4 % of control | B6
11 | 30.8 % of control | B7
12 | 32.8 % of control | B8
13 | 34.7 % of control | B9
14 | 25.2 % of control | B10
15 | -0.7 % of control | B11
16 | 57.4 % of control | B12
17 | 96 % of control | B13
18 | 21.3 % of control | B14
19 | 34.7 % of control | B15
20 | 98.8 % of control | B16
21 | 75.1 % of control | B17
22 | 73.2 % of control | B18
23 | 94.8 % of control | B19
24 | 81.9 % of control | B20
25 | 66 % of control | B21
26 | -0.7 % of control | B22

Molecular target: T2, FcγRIIb extracellular domain with …
Assay: as above
Protocol: as §1, §2

Row | He/Con_2b | Binder
27 | 49.4 % of control | B5
28 | 82.3 % of control | B6
29 | 192 % of control | B7
30 | 169 % of control | B8
31 | 89.2 % of control | B9
32 | 192 % of control | B10
33 | 0.4 % of control | B11
34 | 81 % of control | B12
35 | 103 % of control | B13
36 | 57.2 % of control | B14
37 | 57.6 % of control | B15
38 | 102 % of control | B16
39 | 116 % of control | B17
40 | 119 % of control | B18
41 | 104 % of control | B19
42 | 114 % of control | B20
43 | 114 % of control | B21
44 | 1 % of control | B22
